In one series the test system is MAN11 cells. The series can be described thus: Immunostaining of ALB and CYP3A in MAN11 derived cells (Example 5). The series is classed as cell-based, human. Conditions: MAN11, Day 18, Cameron protocol. As to the method:
MAN11 cells, another GMP grade cell line, were plated on three different substrates. The first substrate was Matrigel® (MG), and served as a control. The second substrate was coated with 5 micrograms per square centimeter (μg/cm^2) of laminin-521 (LN-521). […] The cells were then differentiated according to the Cameron protocol.
(§1) FIG. 16 is a set of 15 photomicrographs at 10× magnification, organized into three columns and five rows. […] Row A is a set of phase contrast images of morphology. The scale bars are 200 μm. Row B is a set of photomicrographs showing the immunofluorescent staining of albumin (ALB) on the three different matrices. Row C is a set of photomicrographs showing the immunofluorescent staining of cytochrome P450 3A (CYP3A). Row D is a set of photomicrographs showing the immunofluorescent staining of multidrug resistance protein 1 (MRP1). Row E is a set of photomicrographs showing immunoglobulin G control staining for sheep, mouse, and rabbit antisera. All of these photos were taken on Day 18.

The subject of a further series is MAN12 cells. The experiment in a line: Immunostaining of ALB and CYP3A in MAN12 derived cells (Example 4). Format: cell-based, human. Conditions: MAN12, Day 24 of differentiation, Cameron protocol. On the procedure: MAN12 cells, a GMP grade cell line, were plated on three different substrates. The first substrate was Matrigel® (MG), and served as a control. The second substrate was coated with 5 micrograms per square centimeter (μg/cm^2) of laminin-521 (LN-521). […] The cells were then differentiated according to the Cameron protocol.
as §1, with “14” for “16”, “rows, taken on Day 24 of differentiation.” for “rows.”, “antisera.” for “antisera. All of these photos were taken on Day 18.”
FIG. 15 is a set of four bar graphs. The first row of two graphs show hepatocyte protein secretion for alpha fetoprotein and albumin as analyzed by ELISA on day 24 of differentiation (n=3). No significant differences were observed across the three matrices. The second row of two graphs show the metabolic function of CYP p450 activity on days 18, 20, and 24 for CYP1A2 and CYP3A activity.

Series [1] concerns H9 human embryonic stem cells (hESCs). The series can be described thus: Immunofluorescent staining of OCT4 and Nanog in pluripotent stem cells on the substrates prior to differentiation. Format: cell-based. Conditions: 24 hours post-replating. On the procedure:
H9 human embryonic stem cells (hESCs) were cultured and maintained in a humidified 37° C., 5% CO2 incubator. Three different substrates were then prepared in 96-well plates. The first substrate was pre-coated with Matrigel® (MG), and served as a control. The second substrate was coated with 5 micrograms per square centimeter (μg/cm^2) of laminin-521 (LN-521).
[…] Cell cultures were fixed in 100% ice-cold methanol at −20 degrees Celsius for 30 minutes, and adjacent cells were pre-washed twice with PBS buffer at room temperature. Cell monolayers were blocked with 0.1% PBS-Tween solution containing 10% bovine serum albumin for 1 hour. Subsequently, the monolayers were incubated with primary antibodies diluted in PBS-0.1% Tween/1% BSA at 4 degrees Celsius overnight. After 24 hours, the primary antibodies were removed and the fixed monolayers were washed three times with PBS-0.1% Tween/1% BSA. Cells were incubated with appropriate secondary antibodies diluted in PBS-0.1% Tween/1% BSA for one hour at room temperature and washed with three times with PBS. Cultures were then mounted with PermaFluor™ Aqueous Mounting Medium and counterstained with NucBlue Hoescht 33342. […] The images were processed through Zeiss Axiovision SE 64 Rel 4.8 and analyzed using Zeiss Axiovision version 4.9.1.0. […]

On to “LN-521: substrate coated with 5 μg/cm^2 of laminin-521, the protein formed by joining α5, β2 and γ1 chains”, for which, in the series with MAN11 cells, the “ALB, percentage of positive cells and standard deviation” value is listed as 89.2% ± 6.0; the “CYP3A, percentage of positive cells and standard deviation” value was 90.8% ± 9.9. For the same substance, in the series with MAN12 cells, the “ALB, percentage of positive cells and standard deviation” value was 83.3% ± 8.5; the “CYP3A, percentage of positive cells and standard deviation” value is given as 81.5% ± 8.6. Moreover, in series [1], the “Expression Levels Nanog” value is 88.7% ± 5.4 and the “Expression Levels OCT4” value is listed as 93.2% ± 5.9.

These data come from patent publication US10683486B2, “Methods for producing hepatocytes” (BioLamina AB, priority 2015, dated 2020).
